Measurements taken from paper PMC6885550 (Journal of molecular biology, 2019).
Where two headings read alike, the source gives them in different places. No end group written: not given here.

Columns and labels:
FRET or BRET [1] = molecular target: the molecule itself; test: FRET or BRET
FRET or BRET [2] = molecular target: the molecule itself; test: FRET or BRET; remark: listed apart in the source

B1: YFP-phospholamban (PLB) (natural protein, UniProt P26678 1-52, looked up)
chain: {YFP}-MEKVQYLTRSAIRRASTIEMPQQARQKLQNLFINFCLILICLLLICIIVMLL
modifications: cysteine pairing not given here
stoichiometry N (FRET or BRET [1]): > 2 | stoichiometry N (FRET or BRET [2]): 2

B2: YFP-endoregulin (ELN) (natural protein, UniProt P0DI80 1-62, looked up)
chain: MDQLVFKETIWNDAFWQNPWDQGGLAVIILFITAVLLLILFAIVFGLLTSTENTQCEAGEEE
stoichiometry N (FRET or BRET [1]): > 2 | stoichiometry N (FRET or BRET [2]): 2

B3: YFP-ALN (another-regulin) (natural protein, UniProt Q8WVX3 1-66, looked up)
chain: MEVDAPGVDGRDGLRERRGFSEGGRQNFDVRPQSGANGLPKHSYWLDLWLFILFDVVVFLFVYFLP
stoichiometry N (FRET or BRET [1]): > 2 | stoichiometry N (FRET or BRET [2]): 2

MTGKNWILISTTTPKSLEDEIVGRLLKILFVIFVDLISIIYVVITS (natural protein, UniProt P0DMT0 1-46, looked up) [YFP-myoregulin (MLN)]
stoichiometry N (FRET or BRET [1]): > 2 | stoichiometry N (FRET or BRET [2]): 2
